Substitutions are numbered along the chain they refer to.
B1: Antibody 58 (Ab58) (antibody, V domains shown)
VH: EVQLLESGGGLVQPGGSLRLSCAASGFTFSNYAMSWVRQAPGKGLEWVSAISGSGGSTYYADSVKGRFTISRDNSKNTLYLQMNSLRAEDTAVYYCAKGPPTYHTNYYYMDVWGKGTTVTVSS
VL: DIQMTQSPSSVSASVGDRVTITCRASQGISSWLAWYQQKPGKAPKLLIYAASSLQSGVPSRFSGSGSGTDFTLTISSLQPEDFATYYCQQTNSFPYTFGGGTKVEIKR
B2: Antibody 61 (Ab61) (antibody, V domains shown)
VH: EVQLLESGGGLVQPGGSLRLSCAASGFTFSSYVMIWVRQAPGKGLEWVSSISGDSVTTYYADSVKGRFTISRDNSKNTLYLQMNSLRAEDTAVYYCAKGPPTYHTNYYYMDVWGKGTTVTVSS
VL: B1 VL
B3: Antibody 67 (Ab67) (antibody, V domains shown)
VH: EVQLVESGGGLVQPGGSLRLSCAASGFTFSDADMDWVRQAPGKGLEWVGRTRNKAGSYTTEYAASVKGRFTISRDDSKNSLYLQMNSLKTEDTAVYYCAREPKYWIDFDLWGRGTLVTVSS
VL: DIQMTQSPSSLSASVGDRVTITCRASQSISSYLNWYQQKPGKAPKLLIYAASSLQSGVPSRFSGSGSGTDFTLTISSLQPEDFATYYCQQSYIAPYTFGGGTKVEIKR
B4: Antibody 66 (Ab66) (antibody, V domains shown)
VH: B3 VH with A32H, D33Y, G56S
VL: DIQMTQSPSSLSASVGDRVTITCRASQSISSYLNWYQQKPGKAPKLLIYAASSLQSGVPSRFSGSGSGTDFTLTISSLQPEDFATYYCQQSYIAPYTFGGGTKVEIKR
B5: Antibody 68 (Ab68) (antibody, V domains shown)
VH: B3 VH with G16R, A23T, A32H, D35N, K54A
VL: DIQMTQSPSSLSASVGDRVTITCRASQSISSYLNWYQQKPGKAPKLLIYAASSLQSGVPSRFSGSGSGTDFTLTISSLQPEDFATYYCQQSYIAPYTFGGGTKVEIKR
B6: Antibody 69 (Ab69) (antibody, V domains shown)
VH: B3 VH with S30V, A32H, A55L
VL: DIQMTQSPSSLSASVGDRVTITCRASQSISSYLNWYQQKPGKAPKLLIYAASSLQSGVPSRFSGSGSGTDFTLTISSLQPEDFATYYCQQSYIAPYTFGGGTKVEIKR
B7: Antibody 56 (Ab56) (antibody, V domains shown)
VH: QVQLVQSGAEVKKPGSSVKVSCKASGGTFSLYAISWVRQAPGQGLEWMGGIIPAFGTANYAQKFQGRVTITADESTSTAYMELSSLRSEDTAVYYCARGGLDTDEFDLWGRGTLVTVSS
VL: DIQMTQSPSSLSASVGDRVTITCRASQSINSYLNWYQQKPGKAPKLLIYAASSLQSGVPSRFSGSGSGTDFTLTISSLQPEDFATYYCQQGVSDITFGGGTKVEIKR
B8: Antibody 55 (Ab55) (antibody, V domains shown)
VH: B7 VH with S30R, L31I, A54D, T57V
VL: B7 VL
B9: Antibody 57 (Ab57) (antibody, V domains shown)
VH: B7 VH with A54H, T57L
VL: B7 VL
B10: Antibody 54 (Ab54) (antibody, V domains shown)
VH: B7 VH with L31S, A54I
VL: B7 VL
B11: CK6 (antibody, V domains shown)
VH: QVQLVQSGAAVKKPGESLKISCKGSGYRFTSYWIGWVRQMPGKGLEWMGIIYPGDSDTRYSPSFQGQVTISAGKSISTAYLQWSSLKASDTAMYYCARHGRGYNGYEGAFDIWGQGTMVTVSS
VL: AIQLTQSPSSLSASVGDRVTITCRASQGISSALAWYQQKPGKAPKLLIYDASSLESGVPSRFSGSGSGTDFTLTISSLQPEDFATYYCQQFNSYPLTFGGGTKVEIK

molecular target: Human CD117 as expressed on cells (Kasumi-1 cells; primary human CD34+ bone marrow cells) (human, UniProt P10721 26-976); experiment: cell-based or functional assay
Sequence (P10721 26-976 limits assumed): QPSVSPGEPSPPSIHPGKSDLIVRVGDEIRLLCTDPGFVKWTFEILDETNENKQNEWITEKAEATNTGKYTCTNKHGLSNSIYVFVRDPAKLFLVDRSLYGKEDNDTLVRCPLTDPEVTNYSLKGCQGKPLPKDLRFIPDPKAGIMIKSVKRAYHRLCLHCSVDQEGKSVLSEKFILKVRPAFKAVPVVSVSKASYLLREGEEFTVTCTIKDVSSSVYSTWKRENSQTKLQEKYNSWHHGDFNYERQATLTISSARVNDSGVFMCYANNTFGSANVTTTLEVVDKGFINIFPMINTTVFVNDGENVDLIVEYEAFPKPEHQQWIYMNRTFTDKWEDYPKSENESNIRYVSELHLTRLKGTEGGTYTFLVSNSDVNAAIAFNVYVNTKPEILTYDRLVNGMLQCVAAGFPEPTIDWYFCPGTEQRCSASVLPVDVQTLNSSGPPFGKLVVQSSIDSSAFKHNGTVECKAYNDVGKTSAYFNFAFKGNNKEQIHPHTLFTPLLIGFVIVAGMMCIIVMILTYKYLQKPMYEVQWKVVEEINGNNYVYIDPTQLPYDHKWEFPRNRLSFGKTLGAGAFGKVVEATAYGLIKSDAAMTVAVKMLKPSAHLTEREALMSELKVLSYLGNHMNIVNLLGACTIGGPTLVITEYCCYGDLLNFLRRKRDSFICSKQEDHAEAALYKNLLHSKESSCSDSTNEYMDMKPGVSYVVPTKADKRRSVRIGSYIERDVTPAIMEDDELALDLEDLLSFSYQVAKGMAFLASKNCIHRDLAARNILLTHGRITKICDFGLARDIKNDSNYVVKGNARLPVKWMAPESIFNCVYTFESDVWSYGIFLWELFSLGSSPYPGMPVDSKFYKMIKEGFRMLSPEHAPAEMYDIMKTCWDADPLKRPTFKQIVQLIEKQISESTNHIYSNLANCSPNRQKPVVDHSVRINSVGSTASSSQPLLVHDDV

In order of rising “AUC Kasumi-1 Killing (AUC hIgG1 - AUC MAC ID#)” value:
1. B5  14400
2. B6  40000
3. B2  78600
4. B1  97400
5. B11  132000
6. B4  135000
7. B10  155000
8. B3  156000
9. B9  157000
10. B7  193000
11. B8  226000

From patent US20220175946A1 (MAGENTA THERAPEUTICS, published 2022)
